Numbering of substitutions follows the chain as printed. In names and notes the source's numbering stands. Read-outs that look alike come from different tables or passages of the source. Positions of bridges follow the written chain, without caps; N, C: chain ends. Non-standard residues stand in square brackets, D forms with d. Primed or numbered codes have the meaning given here. No end group written: not given here. FAM″ = 5(6)-carboxyfluorescein label; pS = N[C@@H](COP(=O)(O)O)C(=O)O; FAM = 5(6)-carboxyfluorescein; S5 = C=CCCC[C@](C)(N)C(=O)O; PEG3′ = PEG3 linker
B1: clathrin heavy chain minimal ankle region (CHC^ankle, aa 358–574) (domain or fragment)
chain: AGAEELFARKFNALFAQGNYSEAAKVAANAPKGILRTPDTIRRFQSVPAQPGQTSPLLQYFGILLDQGQLNKYESLELCRPVLQQGRKQLLEKWLKEDKLECSEELGDLVKSVDPTLALSVYLRANVPNKVIQCFAETGQVQKIVLYAKKVGYTPDWIFLLRNVMRISPDQGQQFAQMLVQDEEPLADITQIVDVFMEYNLIQQCTAFLLDALKNNR
B2: SP4D (peptide)
chain: KESALRKXDLYXKFDPLLRDS
modifications: N-terminal FAM; X557 and X561 are (S)-2-(4-pentenyl)alanine joined as i,i+4 hydrocarbon staple; staple position and limits inferred from Opt SP TACC3 (KESALRK*ELL*…), exact sequence only in Fig 3A
B3: biotinylated Avi-tagged ankle region of clathrin (aa 358–574) (domain or fragment)
chain: B1 chain
modifications: biotin
B4: Opt SP TACC3 (designed binder)
chain: {FAM}-KESALRKLELLLEFDPLFRDS
modifications: staple (positions not given here); not fully specified (residues 8, 12, bridges); also: (S)-2-(4-pentenyl)alanine at 557 and 561 not placed in the given letters
B5: K507A-CHC^ankle (domain or fragment)
chain: B1 chain with K150A

Columns and labels:
[1] = target: Opt P4 (pS558); test: FP
[2] = target: Opt P5 (pS558); test: FP
[3] = target: Opt P6 (S558D); test: FP
[4] = target: Opt P7 (S558D); test: FP
[5] = target: Opt P9 (S558E); test: FP
[6] = target: Opt P2 (S558D); test: FP
[7] = target: Opt P3 (S558D); test: FP
[8] = target: Opt P1 (S558D); test: FP
[9] = target: Opt P2 (pS558); test: FP
[10] = target: Opt P7 (S558E); test: FP
[11] = target: Opt P9 (S558D); test: FP
[12] = target: Opt P6 (S558E); test: FP
[13] = target: Opt P8 (pS558); test: FP
[14] = target: Opt P9 (pS558); test: FP
[15] = target: Opt P4 (S558D); test: FP
[16] = target: Opt P5 (S558D); test: FP
[17] = target: Opt P2 (S558E); test: FP
[18] = target: Opt P7 (pS558); test: FP
[19] = target: Opt P3 (pS558); test: FP
[20] = target: Opt P3 (S558E); test: FP
[21] = target: Opt P8 (S558E); test: FP
[22] = target: Opt P5 (S558E); test: FP
[23] = target: Opt P6 (pS558); test: FP
[24] = target: Opt P1 (S558E); test: FP
[25] = target: Opt P1 (pS558); test: FP
[26] = target: Opt P8 (S558D); test: FP
[27] = target: Opt P4 (S558E); test: FP
[28] = target: P2; test: FP
[29] = target: SP6E; test: FP
[30] = target: SP3E; test: FP
[31] = target: T1, SP4E (human, UniProt Q9Y6A5, two (S)-2-(4-pentenyl)alanine, stapled; FAM on the N-terminus); test: FP
[32] = target: SP1; test: FP
[33] = target: SP3D; test: FP
[34] = target: SP2; test: FP
[35] = target: SP6D; test: FP
[36] = target: P1; test: FP
[37] = target: B3; test: SPR
[38] = target: B3; test: SPR
[39] = target: B5; test: FP
[40] = target: B5; test: FP; remark: listed apart in the source
[41] = target: B1; test: FP
[42] = target: T1, SP4E; test: SPR
[43] = target: B1; test: FP

With B1 the Kd [1] was 7.1 µM, the Kd [2] was 5 µM and the Kd [3] was 5.5 µM. The Kd [4] was 16.2 µM, the Kd [5] was 23.4 µM and the Kd [6] was 3.3 µM. It also gave a Kd [7] of 22.8 µM, a Kd [8] of 6.3 µM and a Kd [9] of 1.2 µM. For the same binder, the Kd [10] was 10.1 µM, the Kd [11] was 24.5 µM and the Kd [12] was 2.8 µM. The Kd [13] was 15 µM, the Kd [14] was 9.5 µM and the Kd [15] was 6.5 µM. The Kd [16] was 16 µM, the Kd [17] was 1.3 µM and the Kd [18] was 4.4 µM. For the same binder, the Kd [19] was 3.3 µM, the Kd [20] was 13 µM and the Kd [21] was 13 µM. The Kd [22] was 6.7 µM, the Kd [23] was 1.8 µM and the Kd [24] was 2.4 µM. For the same binder, the Kd [25] was 1.7 µM, the Kd [26] was 30 µM and the Kd [27] was 6.1 µM. For the same binder, the Kd [28] was 160 µM, the Kd [29] was 54 µM and the Kd [30] was 78 µM. The Kd [31] was 34 µM, the Kd [32] was 22 µM and the Kd [33] was 92 µM. The Kd [34] was 145 µM, the Kd [35] was 74 µM and the Kd [36] was 105 µM.

{FAM}-FKESALRKQ[pS]LYLKFDPLLRDS [FAM-pTACC3 CID peptide (aa 549–570), phosphorylated at S558] was tested, and the Kd [37] was 23 µM, the koff [38] was 1.4 s⁻¹ and the Kd [39] was 22 µM.

B2 gave a Kd [40] of 5.2 µM and a Kd [41] of 39 µM.

With B3 the Kd [42] was 2.8 µM and the koff [42] was 0.46 s⁻¹.

For B4, the Kd [37] was 0.03 µM, the koff [38] was 0.04 s⁻¹ and the Kd [40] was 0.19 µM. It also gave a Kd [41] of 0.136 µM.

For {FAM″}-KESALRKQELY[S5]KFD[S5]LLRDS-NH2 (staple 12-16) [SP5E], the Kd [40] was 146 µM and the Kd [41] was 234 µM.

In the case of {FAM-PEG3′}-KESALRK[S5]ELL[S5]EFDPLFRDS (designed binder, staple 8-12) [Opt PEG3 SP TACC3], the Kd [40] is reported as 0.178 µM and the Kd [41] is reported as 0.12 µM.

B5 gave a Kd [28] of 19 µM, a Kd [29] of 53 µM and a Kd [30] of 22 µM. For the same binder, the Kd [31] was 3.7 µM, the Kd [33] was 23 µM and the Kd [34] was 23 µM. For the same binder, the Kd [35] was 44 µM and the Kd [36] was 37 µM.

In the case of {FAM}-KESALRKQDLYLKFDPLLR [WT TACC3 S558D], the Kd [43] is reported as 339 µM.

Binder {FAM″}-KESALRKQDLY[S5]KFD[S5]LLRDS-NH2 (staple 12-16) [SP5D] has a Kd [40] of 152 µM and a Kd [41] of 361 µM.

{FAM″}-KESALRK[S5]ELL[S5]EADPAFRDS-NH2 (staple 8-12) [negative control SP TACC3 (F563A & L566A)] gave a Kd [40] of 280 µM.
